The record followed here is PMC5593958, “Dissecting the link between the enzymatic activity and the SaPI inducing capacity of the phage 80α dUTPase” (Scientific Reports, 2017).

The Km is the concentration of substrate that gives half-maximal velocity. The term Kd denotes a measure of binding affinity in units of concentration. The stoichiometry N is the number of molecules, sites or subunits per partner or assembly.

The target of data set [1] is T1, Dut80α (Dubowvirus dv80alpha, UniProt A4ZF98).
T1 construct: pET28a, His-tagged, E. coli BL21 (DE3), HisTrap and size exclusion; homotrimer; last residues cited about 170
The data set is described as follows: thermal shift (Sypro Orange). The following applies: 1 mM dUPNPP, 5 mM MgCl2, 10 μM protein, 75 mM HEPES pH 7.5, 250 mM NaCl; absolute Tm, not a shift; decimal comma as printed. Format: binding. From the text:
thermal shift (Sypro Orange) on Dut80α

Data set [2] has as its system O=c1ccn([C@H]2C[C@H](O)[C@@H](COP(=O)(O)OP(=O)(O)OP(=O)(O)O)O2)c(=O)[nH]1. The experiment in a line: malachite green phosphate assay. Format: biochemical, Dubowvirus dv80alpha. The following applies: pH 7.5. The source says: malachite green phosphate assay on Dut80α
Data set [3] deals with phage 80α dUTPase D95E mutant (Dut80α D95E) (Staphylococcus aureus phage 80α). The data set is described as follows: BLI.
Data set [4] has the same target. The experiment in a line: crystal structure.

For `O=c1ccn([C@H]2C[C@H](O)[C@@H](COP(=O)(O)NP(=O)(O)OP(=O)(O)O)O2)c(=O)[nH]1` [dUPNPP, 2′-Deoxyuridine-5′-[(α,β)-imido]triphosphate], the “Thermal Unfolding (°C) / +dUPNPP” value in data set [1] is given as 58 ± 0,09. As for (Dubowvirus dv80alpha), the Km in data set [2] is 7.5 µM. As for “Stl repressor from SaPIbov1 (natural protein)”, the Kd in data set [3] is more than 1000 µM. On to “phage 80α dUTPase D95E mutant (Dut80α D95E) (enzyme)”, for which the stoichiometry N in data set [4] worked out at 3.
